Measured values: patent US20170306037A1 (Novartis, published 2017)

Columns and labels:
DcR1 = target: T1, DcR1 (human, UniProt O14798); test: specificity ELISA, bacterial lysate on HisGrab nickel plate
T1 sequence (receptor, looked up): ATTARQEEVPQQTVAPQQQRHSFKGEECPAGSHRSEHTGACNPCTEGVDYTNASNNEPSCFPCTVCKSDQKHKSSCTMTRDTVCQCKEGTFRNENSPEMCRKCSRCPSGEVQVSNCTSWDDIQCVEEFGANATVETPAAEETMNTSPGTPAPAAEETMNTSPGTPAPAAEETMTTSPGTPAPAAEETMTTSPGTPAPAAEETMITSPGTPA
Description: (§1) For the specificity ELISA, a crude cell lysate was made from bacteria expressing members of the TNFRSF family. To prevent nonspecific binding to the plate 50 μL of 5% BSA was added per mL of bacterial lysate. […] The plate was then rinsed three times with PBST, then MAB was diluted to 0.5 μg/mL in 10% FBS in PBS and 100 μL was added to each well. The plate was incubated for 1 hour at room temperature and then rinsed three times with PBST. Anti-human kappa antibody (Sigma #A7164) conjugated to HRP was diluted 1:5000 in 1:1 PBST: 10% FBS in PBS and 100 μL added to each well. The plate was incubated for 1 hour at room temperature, and then washed three times with PBST. 100 μL of SureBlue TMB substrate was added to each well and the plate was incubated for about 10 min at room temperature before stopping the reaction with 100 μL /well of 2N H₂SO₄.

TACI = target: T2, TACI (human, UniProt O14836); test: as above
T2 sequence (receptor, looked up): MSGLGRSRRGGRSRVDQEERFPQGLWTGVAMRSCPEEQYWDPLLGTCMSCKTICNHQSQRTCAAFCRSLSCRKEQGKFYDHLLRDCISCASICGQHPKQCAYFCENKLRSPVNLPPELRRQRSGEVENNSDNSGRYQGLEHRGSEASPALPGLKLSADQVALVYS
Description: as §1

CD137 = target: T3, CD137 (human, UniProt Q07011); test: as above
T3 construct: also called TNFRSF9
Description: as §1

OPG = target: T4, OPG (human, UniProt O00300); test: as above
T4 sequence (receptor, looked up): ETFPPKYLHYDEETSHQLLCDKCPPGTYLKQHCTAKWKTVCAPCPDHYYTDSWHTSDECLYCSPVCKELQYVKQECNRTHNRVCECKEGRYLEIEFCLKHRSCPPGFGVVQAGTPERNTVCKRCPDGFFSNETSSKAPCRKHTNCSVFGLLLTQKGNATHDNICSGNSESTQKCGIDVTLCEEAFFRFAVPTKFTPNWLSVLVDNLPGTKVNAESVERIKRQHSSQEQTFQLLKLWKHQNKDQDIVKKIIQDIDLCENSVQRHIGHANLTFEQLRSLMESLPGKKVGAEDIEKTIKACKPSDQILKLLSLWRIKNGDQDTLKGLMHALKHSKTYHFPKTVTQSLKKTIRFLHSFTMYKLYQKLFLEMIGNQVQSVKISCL
Description: as §1

TNFR3 = TNFR3 (human, UniProt P36941); test: as above
Chain of TNFR3 (P36941 31-227 limits assumed): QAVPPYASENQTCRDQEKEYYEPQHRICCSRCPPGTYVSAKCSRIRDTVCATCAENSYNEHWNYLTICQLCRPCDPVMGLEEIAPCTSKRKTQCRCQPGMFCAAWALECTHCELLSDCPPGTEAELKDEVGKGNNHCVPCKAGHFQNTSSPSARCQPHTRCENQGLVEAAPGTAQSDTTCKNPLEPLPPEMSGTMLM
Description: as §1

DR4 = target: T5, DR4 (human, UniProt O00220); test: as above
T5 sequence (receptor, looked up): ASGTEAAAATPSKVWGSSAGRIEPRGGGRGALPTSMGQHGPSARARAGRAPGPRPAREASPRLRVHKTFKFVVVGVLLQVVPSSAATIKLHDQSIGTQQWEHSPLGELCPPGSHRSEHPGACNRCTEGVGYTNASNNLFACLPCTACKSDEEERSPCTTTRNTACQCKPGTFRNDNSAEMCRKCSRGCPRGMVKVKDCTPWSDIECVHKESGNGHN
Description: as §1

CD30 = target: T6, CD30 (human, UniProt P28908); test: as above
T6 sequence (receptor, looked up): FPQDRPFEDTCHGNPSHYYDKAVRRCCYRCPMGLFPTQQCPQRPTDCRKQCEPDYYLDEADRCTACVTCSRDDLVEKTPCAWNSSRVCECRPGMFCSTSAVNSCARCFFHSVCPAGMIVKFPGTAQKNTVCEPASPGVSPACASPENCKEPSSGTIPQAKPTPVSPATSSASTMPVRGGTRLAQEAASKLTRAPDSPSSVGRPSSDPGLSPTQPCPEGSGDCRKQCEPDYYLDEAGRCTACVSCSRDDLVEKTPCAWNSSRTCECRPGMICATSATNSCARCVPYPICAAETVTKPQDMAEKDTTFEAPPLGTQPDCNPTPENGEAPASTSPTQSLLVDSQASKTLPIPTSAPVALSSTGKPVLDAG
Description: as §1

CD27 = target: T7, CD27 (human, UniProt P26842); test: as above
T7 sequence (receptor, looked up): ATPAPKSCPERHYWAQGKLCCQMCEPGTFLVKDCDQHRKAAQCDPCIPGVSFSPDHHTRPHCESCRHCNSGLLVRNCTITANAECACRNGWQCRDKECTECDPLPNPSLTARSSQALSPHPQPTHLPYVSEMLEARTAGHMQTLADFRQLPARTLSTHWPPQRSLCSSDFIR
Description: as §1

[1] = target: T8, rat GITR extracellular domain (rat, UniProt F7FFS7 65-198); test: ELISA on coated GITR ECD
T8 construct: also called rodent GITR
T8 sequence: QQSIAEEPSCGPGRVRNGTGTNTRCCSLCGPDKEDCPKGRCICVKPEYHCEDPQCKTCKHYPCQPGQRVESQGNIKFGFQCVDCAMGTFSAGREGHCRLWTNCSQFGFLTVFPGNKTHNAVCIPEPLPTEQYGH
Description: The plate was blocked with a solution of 1% BSA in PBS for one hour at room temperature and then rinsed three times with PBST. The MAB was then diluted to 0.5 μg/mL or 1 μg/mL in PBS and 20 μL was added to each well. The plate was incubated for 1 hour at room temperature and then washed three times with PBST. […] The plate was incubated for 1 hour at room temperature, and then washed six times with PBST. 25 μL of SureBlue TMB (KPL 52-00-02) substrate was added to each well and the plate was incubated for about 10 min at room temperature.

B1: MAB4 (IgG1 kappa) (antibody, V domains shown)
VH: EVQLVESGGGLVQSGGSLRLSCAASGFSLSSYGVDWVRQAPGKGLEWVGVIWGGGGTYYASSLMGRFTISRDNSKNTLYLQMNSLRAEDTAVYYCAKHAYGHDGGFAMDYWGQGTLVTVSS
VL: EIVMTQSPATLSVSPGERATLSCRASESVSSNVAWYQQRPGQAPRLLIYGASNRATGIPARFSGSGSGTDFTLTISRLEPEDFAVYYCGQSYSYPFTFGQGTKLEIKR
**Q.** Does B1 bind (DcR1)?
**A.** Result: no binding (tested: not on the sheet; paragraph 335: 0.5 µg/mL)

**Q.** Does B1 bind (TACI)?
**A.** Result: no binding (tested: not on the sheet; paragraph 335: 0.5 µg/mL)

**Q.** Does B1 bind (CD137)?
**A.** Result: no binding (tested: not on the sheet; paragraph 335: 0.5 µg/mL)

**Q.** Does B1 bind (OPG)?
**A.** Result: no binding (tested: not on the sheet; paragraph 335: 0.5 µg/mL)

**Q.** Does B1 bind (TNFR3)?
**A.** Result: no binding (tested: not on the sheet; paragraph 335: 0.5 µg/mL)

**Q.** Does B1 bind (DR4)?
**A.** Result: no binding (tested: not on the sheet; paragraph 335: 0.5 µg/mL)

**Q.** Does B1 bind (CD30)?
**A.** Result: no binding (tested: not on the sheet; paragraph 335: 0.5 µg/mL)

**Q.** Does B1 bind (CD27)?
**A.** Result: no binding (tested: not on the sheet; paragraph 335: 0.5 µg/mL)

**Q.** Does B1 bind [1]?
**A.** Result: no binding (tested: not on the sheet; paragraph 336: 0.5 or 1 µg/mL)

B2: MAB5 (IgG1 kappa) (antibody, V domains shown)
VH: EVQLVESGGGLVQSGGSLRLSCAASGFSLSSYGVDWVRQAPGKGLEWLGVIWGGGGTYYTSSLMGRFTISRDNSKNTLYLQMNSLRAEDTAVYYCAKHAYGHDGGFAMDYWGQGTLVTVSS
VL: EIVMTQSPATLSVSPGERATLSCRASESVSSNVAWYQQRPGQAPRLLIYGASNRATGIPARFSGSGSGTDFTLTISRLEPEDFAVYYCGQSYSYPFTFGQGTKLEIKR
notes: also called MABS (misprint of MAB5)
**Q.** Does B2 bind (DcR1)?
**A.** Result: no binding (tested: not on the sheet; paragraph 335: 0.5 µg/mL)

**Q.** Does B2 bind (TACI)?
**A.** Result: no binding (tested: not on the sheet; paragraph 335: 0.5 µg/mL)

**Q.** Does B2 bind (CD137)?
**A.** Result: no binding (tested: not on the sheet; paragraph 335: 0.5 µg/mL)

**Q.** Does B2 bind (OPG)?
**A.** Result: no binding (tested: not on the sheet; paragraph 335: 0.5 µg/mL)

**Q.** Does B2 bind (TNFR3)?
**A.** Result: no binding (tested: not on the sheet; paragraph 335: 0.5 µg/mL)

**Q.** Does B2 bind (DR4)?
**A.** Result: no binding (tested: not on the sheet; paragraph 335: 0.5 µg/mL)

**Q.** Does B2 bind (CD30)?
**A.** Result: no binding (tested: not on the sheet; paragraph 335: 0.5 µg/mL)

**Q.** Does B2 bind (CD27)?
**A.** Result: no binding (tested: not on the sheet; paragraph 335: 0.5 µg/mL)

**Q.** Does B2 bind [1]?
**A.** Result: no binding (tested: not on the sheet; paragraph 336: 0.5 or 1 µg/mL)
